Laboratory results published in publication PMC3988186.

Columns and labels:
beta-arrestin 1 = beta-arrestin 1 (UniProt P49407); details: 2'-F pyrimidines (2'F-C, 2'F-U); Kd assay buffer not stated separately; selection buffer F: 20 mM HEPES pH 7.4, 150 mM NaCl, 1 mM CaCl2, 1 mM MgCl2, 0.01% BSA, 37 C
beta-arrestin 2 = beta-arrestin 2 (UniProt P32121); details: 2'-F pyrimidines (2'F-C, 2'F-U); Kd assay buffer not stated separately; selection buffer F: 20 mM HEPES pH 7.4, 150 mM NaCl, 1 mM CaCl2, 1 mM MgCl2, 0.01% BSA, 37 C
beta-arrestin 2, sequence (P32121 whole entry): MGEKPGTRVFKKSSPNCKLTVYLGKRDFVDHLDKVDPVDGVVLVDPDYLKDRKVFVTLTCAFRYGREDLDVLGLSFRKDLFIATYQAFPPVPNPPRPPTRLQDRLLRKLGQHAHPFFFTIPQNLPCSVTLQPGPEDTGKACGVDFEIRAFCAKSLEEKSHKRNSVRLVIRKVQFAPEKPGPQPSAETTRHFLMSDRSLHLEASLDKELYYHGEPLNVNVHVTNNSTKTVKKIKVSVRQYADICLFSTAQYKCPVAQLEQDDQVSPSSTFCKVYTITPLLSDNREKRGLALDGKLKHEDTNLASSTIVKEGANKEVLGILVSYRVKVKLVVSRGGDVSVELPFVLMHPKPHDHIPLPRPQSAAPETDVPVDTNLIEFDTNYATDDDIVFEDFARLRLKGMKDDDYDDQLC

beta-arrestin 1, sequence (P49407 whole entry): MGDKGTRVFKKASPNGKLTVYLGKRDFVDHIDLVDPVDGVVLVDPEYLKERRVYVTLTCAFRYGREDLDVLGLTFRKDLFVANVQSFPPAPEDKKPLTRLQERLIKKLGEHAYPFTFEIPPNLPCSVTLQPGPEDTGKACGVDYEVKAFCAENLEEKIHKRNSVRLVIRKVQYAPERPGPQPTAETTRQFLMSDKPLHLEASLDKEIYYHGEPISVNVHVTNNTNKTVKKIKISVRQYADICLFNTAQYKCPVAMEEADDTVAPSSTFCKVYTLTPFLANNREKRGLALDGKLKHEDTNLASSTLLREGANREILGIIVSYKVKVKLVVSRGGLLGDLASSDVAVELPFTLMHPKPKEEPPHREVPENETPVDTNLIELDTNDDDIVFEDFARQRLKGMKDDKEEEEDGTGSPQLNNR

“GGGAGGACGAUGCGGCCAGGUGUAGACAGACGUGAGAGAUUGACCUGGCAGCAGCCAGACGACUCGCUGAGGAUCCGAGA [beta-arr2A2]” was tested. Which Kd (beta-arrestin 1) did it give?
Its Kd is 2160 nM.

And the Kd (beta-arrestin 2)?
Its Kd is 4.13 nM.

Which results are given for “GGGAGGACGAUGCGGAUUCCGUUAAGUAUCGCGUUAAACGCUAUGCGGACGCGUCAGACGACUCGCUGAGGAUCCGAGA [beta-arr2A1]”?
Kd (beta-arrestin 1): 966 nM; Kd (beta-arrestin 2): 19.8 nM

Which Kd (beta-arrestin 1) does the source give for “GGGAGGACGAUGCGGAUCCUCGUCCCGUCACGGCAGAACCACGUCAGGCCUUCAACAGACGACUCGCUGAGGAUCCGAGA [beta-arr2A3]” here?
The Kd was 748 nM.

And the Kd (beta-arrestin 2)?
The Kd was 22 nM.
